Measurements published in US5503978, “Method for identification of high affinity DNA ligands of HIV-1 reverse transcriptase” (University Research Corporation).

Assays:
[1] = biological target: T1, HIV-1 reverse transcriptase (HIV-1, UniProt P04585;P04585 P04585:588-1147,P04585:588-1027); assay: inhibition; Ki' for RNA-dependent DNA polymerase activity; conditions: tags: overexpressed in E. coli, purified per Davies et al. 1991
Source text: (§1) A substrate for the RNA-dependent DNA polymerase activity of HIV-1 RT was assembled by annealing an 18 nucleotide, 5' end-labeled DNA primer to a 30 nucleotide RNA template with a complementary 3' end (see FIG. 10), and purifying the duplex on a 12% non-denaturing acrylamide gel. The primer sequence matched the 3' terminal 18 nucleotides of tRNA^{Lys,3}, responsible for priming minus-strand DNA synthesis of the HIV-1 genome, and the template sequence paralleled the HIV-1 genomic primer binding site and downstream 12 nucleotides. A dilution series of inhibitory ssDNA ligand (to give a final concentration of 0, 1, 3, 9, 27, or 81 nM) was denatured in HRT Buffer at 70° C. for 5 minutes and allowed to renature slowly at 20° C. The primer:template substrate was added to a final concentration of 40 nM, along with dNTP's at 400 µM. The 10 µl reaction was initiated with the addition of either HIV-1, AMV, or MMLV-RT (to give a final concentration of 10 nM), allowed to proceed for 5 minutes at 37° C., and terminated with one volume of formamide. Extension products were separated on an 8% denaturing acrylamide gel and quantitated with an Ambis radioanalytic imager.
The ability of each of the 8 isolates to inhibit the RNA-dependent DNA polymerase activity of HIV-1 RT was assayed by measuring the decrease in extension product formation from a primer:template substrate as a function of inhibitor concentration (FIGS. 10A–10E). The substrate for the inhibition assay was a DNA:RNA heteroduplex consisting of an 18 nucleotide end-labeled DNA primer identical in sequence to the 3' end of tRNA^{Lys,3} annealed to a 30 nucleotide RNA template whose sequence matches the genomic primer binding site and the first twelve transcribed nucleotides. Extension reactions were performed as described in Example 1 in the presence of 0, 81, 27, 9, 3, and 1 nM inhibitor as indicated in FIG. 10.

[2] = biological target: T1, HIV-1 reverse transcriptase; assay: inhibition; Ki' for RNA-dependent DNA polymerase activity; 37 C, 40 nM primer:template; conditions: tags: overexpressed in E. coli, purified per Davies et al. 1991; label: 5'-32P; long interrupted helix with AA/CG internal loop
Source text: as §1, with “imager. […]” for “imager.”

[3] = biological target: T1, HIV-1 reverse transcriptase; assay: filter; HRT buffer, 6 mM MgCl2, 37 C; conditions: tags: overexpressed in E. coli, purified per Davies et al. 1991, label: 5'-32P
[4] = biological target: T1, HIV-1 reverse transcriptase; assay: competition; Kc for displacement of RT1; conditions: tags: overexpressed in E. coli, purified per Davies et al. 1991; pseudoknot
Protocol: To test this, we measured the ability of the ssDNA ligand RT1 (SEQ ID NO:71) to maintain its specific binding contacts with HIV-1 RT in the presence of high concentrations of RNA pseudoknot (see FIG. 8). […] The percent of RT1 bound in the presence of competitor relative the percent bound in the absence of competitor is plotted as a function of RNA pk concentration. […] As shown graphically in FIG. 14, when a stoichiometric equivalent of RNA pk was added, approximately one half of the complexed RT1 was displaced, and nearly all was displaced when a large excess of RNA was added. […] However, with this assay we are unable to distinguish between an interaction of both ligands at a common site or an interaction of each at different sites, with a conformational change upon binding the first that prevents subsequent binding of the second.

[5] = biological target: T1, HIV-1 reverse transcriptase; assay: filter; HRT buffer, 37 C; conditions: tags: overexpressed in E. coli, purified per Davies et al. 1991; pseudoknot
[6] = biological target: T1, HIV-1 reverse transcriptase; assay: filter; nearly as high as full-length RT1; conditions: tags: overexpressed in E. coli, purified per Davies et al. 1991

B1: RT4 (ssDNA)
DNA: ATCCGCCTGATTAGCGATACTTTAGCAAAGTTGAAGCCGGACTAACAAGCTCTACGACTTGAGCAAAATCACCTGCAGGGG
Ki ([1]; label: 5'-32P, internal loop AA opposite AG): 4.1 nM

B2: RT36 (ssDNA)
DNA: ATCCGCCTGATTAGCGATACTAAGCTCTTAGTTGATGCGCGGTCAAAATTTAAGCTACTTGAGCAAAATCACCTGCAGGGG
Ki ([1]; label: 5'-32P, internal loop AA opposite A): 6.5 nM

B3: RT1 (ssDNA)
DNA: ATCCGCCTGATTAGCGATACTCAGAAGGATAAACTGTCCAGAACTTGGAATATATCACTTGAGCAAAATCACCTGCAGGGG
Ki [2]: 0.3 nM
Kd ([3]; long interrupted helix with AA/CG internal loop): ~1 nM

B4: RT8 (ssDNA)
DNA: ATCCGCCTGATTAGCGATACTAGCCAGTCAAGTTAATGGGTGCCATGCAGAAGCAACTTGAGCAAAATCACCTGCAGGGG
Ki ([1]; label: 5'-32P, internal loop CAA opposite TAG): 13 nM

GGUCCGAAGUGCAACGGGAAAAUGCACU (ssRNA) [RNA pseudoknot (RNA pk)]
Ki ([1]; pseudoknot): 4.7 nM
Ki [4]: 3 nM
Kd [5]: 5 nM

B5: RT6 (ssDNA)
DNA: ATCCGCCTGATTAGCGATACTCAGGCGTTAGGGAAGGGCGTCGAAAGCAGGGTGGGACTTGAGCAAAATCACCTGCAGGGG
Ki ([1]; label: 5'-32P): 30 nM
Kd [3]: 5 nM

B6: RT10 (ssDNA)
DNA: ATCCGCCTGATTAGCGATACTTATTTGCCCTTGCAGGCCGCAGGAGTGCTAGCAGTACTTGAGCAAAATCACCTGCAGGGG
Ki ([1]; label: 5'-32P, intramolecular primer:template junction (3' AGGGG paired with CCCCT)): 62 nM

B7: RT26 (ssDNA)
DNA: ATCCGCCTGATTAGCGATACTTACGTGAGCGTGCTGTCCCCTAAAGGTGATACGTCACTTGAGCAAAATCACCTGCAGGGG
Ki ([1]; label: 5'-32P, intramolecular primer:template junction, AA/CG internal loop): 2.7 nM
Kd ([3]; intramolecular primer:template junction, AA/CG internal loop): ~1 nM

ATCCGCCTGAATAGCGATACTCAGAAGGATAAACTGTCCAGAACTTGGA (ssDNA) [RT1t49]
Kd [6]: 4 nM
